Data taken from patent US20240301076A1 (CEPHALON, published 2024).
Residue numbers refer to the chain shown, from its start. In names and notes the source's numbering stands.

Key:
human CXCR2 [1] = biological target: T1, human CXCR2 (human, UniProt P25025 1-360); assay: flow cytometry, CXCR2-transfected Expi293F cells
T1 construct: also called CXC chemokine receptor 2; hCXCR2
T1 sequence: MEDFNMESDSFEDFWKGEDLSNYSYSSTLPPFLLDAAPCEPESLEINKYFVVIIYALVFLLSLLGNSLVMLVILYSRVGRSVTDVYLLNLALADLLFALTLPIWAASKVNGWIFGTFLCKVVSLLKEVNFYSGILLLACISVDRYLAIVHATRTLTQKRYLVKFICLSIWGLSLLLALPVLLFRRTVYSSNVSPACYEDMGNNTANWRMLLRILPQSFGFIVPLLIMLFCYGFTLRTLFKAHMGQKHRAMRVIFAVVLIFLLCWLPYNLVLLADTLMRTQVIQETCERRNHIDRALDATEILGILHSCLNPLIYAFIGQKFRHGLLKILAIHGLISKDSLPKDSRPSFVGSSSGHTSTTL
Description: (§1) Harvested cells were resuspended in FACS buffer (1×PBS+0.5% (w/v) bovine serum albumin (BSA)+2 mM EDTA pH 7.2). Approximately 2×10⁵ cells were added per well in a 96-well round-bottomed plate. Cells were pelleted by centrifugation at 400 g for 5 mins at 4° C. and supernatants discarded. 25 μL of each test antibody or control antibody was added to the cells and incubated for 30 minutes at 4° C. Cells were washed twice in 100 μL FACS buffer followed by centrifugation at 400 g for 5 mins at 4° C.
(§2) For detection, 50 μL of secondary antibody (Table 2) was added to relevant samples. Commercially available antibodies that bound to transfected CXCR family members were used as positive controls to ensure that the cells were expressing the receptors. Cells were washed twice in 200 μL of FACS buffer followed by centrifugation at 400 g for 5 mins at 4° C. Before sample acquisition, cells were resuspended in 100 μL of FACS buffer. Samples were acquired using the high throughput sampler on a FACSCanto™ II cytometer (Beckton-Dickinson).
Each heavy chain was co-expressed with each light chain to produce a sequence optimized antibody variant. Antibodies were purified and tested for CXCR2 binding activity as described in General Methods.

human CXCR2 [2] = biological target: T1, human CXCR2; assay: cell-based or functional assay
human CXCR2 [3] = biological target: T1, human CXCR2; assay: flow cytometry, CXCR2-transfected Expi293F cells; remark: listed apart in the source
Description: as §1, §2
Each variant heavy chain was co-expressed with the parental light chain and vice versa.

B1: BKO-4A8 combinatorial variant 1c (antibody, human IgG4 S228P, lambda, V domains shown)
VH: EVQLLESGGGLVQPGGSLRLSCAASGFTFSSSTQSWVRQAPGKGLEWVSAISGRGRSTYYADSVKGRFTISRDNSRNTLYLQMNSLRAEDTAVYYCAIQMGYWGQGILVTVSS
VL: QSALTQPPSASGSPGQSVTISCIGTSSDVGGYNYVSWYQQHPGKAPKLMIYEVSKRPSGVPDRFSGSKSGNTASLTVSGLQAEDEADYYCSSYAGSNNFGVFGGGTKLTVLG
notes: IgG4 S228P, lambda
Human CXCR2 [1]
  EC50: 0.3 nM
  Fold Improvement over 4A8 WT: 1.33 fold

B2: BKO-4A8 combinatorial variant 10b (antibody, human IgG4 S228P, lambda, V domains shown)
VH: B1 VH with Q34M, S57N, I98K, M100K
VL: B1 VL with G43D
notes: IgG4 S228P, lambda
Human CXCR2 [1]
  EC50: 0.3 nM
  Fold Improvement over 4A8 WT: 1.67 fold

B3: BKO-4A8 combinatorial variant 2c (antibody, human IgG4 S228P, lambda, V domains shown)
VH: B1 VH with A40P
VL: B1 VL
notes: IgG4 S228P, lambda
Human CXCR2 [1]
  EC50: 0.3 nM
  Fold Improvement over 4A8 WT: 1.67 fold

B4: BKO-4A8 combinatorial variant 7b (antibody, human IgG4 S228P, lambda, V domains shown)
VH: B1 VH with A40P, I98K, M100K
VL: B1 VL with G43D
notes: IgG4 S228P, lambda
Human CXCR2 [1]
  EC50: 0.8 nM
  Fold Improvement over 4A8 WT: 0.63 fold

B5: BKO-4A8 variant VL N52S (antibody, human IgG4 S228P, lambda, V domains shown)
VH: B1 VH with Q34M, S57N
VL: B1 VL with G43D, S96N
notes: IgG4 S228P, lambda; parental heavy chain; also called 4A8 VL N52S
Human CXCR2 [2]
  IC50, CXCL1, Tango assay: 0.214 nM
  IC50, CXCL8, Tango assay: 0.126 nM
Human CXCR2 [3]
  Fold change in binding relative to BKO-4A8: 1 fold

B6: BKO-4A8 combinatorial variant 2b (antibody, human IgG4 S228P, lambda, V domains shown)
VH: B1 VH with A40P
VL: B1 VL with G43D
notes: IgG4 S228P, lambda
Human CXCR2 [1]
  EC50: 0.4 nM
  Fold Improvement over 4A8 WT: 1.25 fold

B7: BKO-4A8 combinatorial variant 4b (antibody, human IgG4 S228P, lambda, V domains shown)
VH: B1 VH with A40P, M100K
VL: B1 VL with G43D
notes: IgG4 S228P, lambda
Human CXCR2 [1]
  EC50: 0.4 nM
  Fold Improvement over 4A8 WT: 1.25 fold

B8: BKO-4A8 combinatorial variant 5b (antibody, human IgG4 S228P, lambda, V domains shown)
VH: B1 VH with A40P, R76K, M100K
VL: B1 VL with G43D
notes: IgG4 S228P, lambda
Human CXCR2 [1]
  EC50: 0.4 nM
  Fold Improvement over 4A8 WT: 1.25 fold

B9: BKO-4A8 variant VH M96Q (antibody, human IgG4 S228P, lambda, V domains shown)
VH: B1 VH with Q34M, S57N, M100Q
VL: B1 VL with G43D, S54N, S96N
notes: IgG4 S228P, lambda; parental light chain; also called 4A8 VH M96Q
Human CXCR2 [2]
  IC50, CXCL1, Tango assay: 0.33 nM
  IC50, CXCL8, Tango assay: 0.14 nM
Human CXCR2 [3]
  Fold change in binding relative to BKO-4A8: 1.5 fold

B10: BKO-4A8 variant VH M34Q (antibody, human IgG4 S228P, lambda, V domains shown)
VH: B1 VH with S57N
VL: B1 VL with G43D, S54N, S96N
notes: IgG4 S228P, lambda; parental light chain; also called 4A8 VH M34Q
Human CXCR2 [2]
  IC50, CXCL1, Tango assay: 0.242 nM
  IC50, CXCL8, Tango assay: 0.0776 nM
Human CXCR2 [3]
  Fold change in binding relative to BKO-4A8: 1 fold

B11: BKO-4A8 combinatorial variant 3c (antibody, human IgG4 S228P, lambda, V domains shown)
VH: B1 VH with A40P, R76K
VL: B1 VL
notes: IgG4 S228P, lambda
Human CXCR2 [1]
  EC50: 0.2 nM
  Fold Improvement over 4A8 WT: 2 fold

B12: BKO-4A8 combinatorial variant 6c (antibody, human IgG4 S228P, lambda, V domains shown)
VH: B1 VH with A40P, R76K, I98K, M100K
VL: B1 VL
notes: IgG4 S228P, lambda
Human CXCR2 [1]
  EC50: 0.9 nM
  Fold Improvement over 4A8 WT: 0.44 fold

B13: BKO-4A8 variant VL N94S (antibody, human IgG4 S228P, lambda, V domains shown)
VH: B1 VH with Q34M, S57N
VL: B1 VL with G43D, S54N
notes: IgG4 S228P, lambda; parental heavy chain; also called 4A8 VL N94S
Human CXCR2 [2]
  IC50, CXCL1, Tango assay: 0.149 nM
  IC50, CXCL8, Tango assay: 0.169 nM
Human CXCR2 [3]
  Fold change in binding relative to BKO-4A8: 1 fold

B14: BKO-4A8 combinatorial variant 9c (antibody, human IgG4 S228P, lambda, V domains shown)
VH: B1 VH with R76K, M100K
VL: B1 VL
notes: IgG4 S228P, lambda
Human CXCR2 [1]
  EC50: 6.4 nM
  Fold Improvement over 4A8 WT: 0.14 fold

B15: BKO-4A8 variant VH M96K (antibody, human IgG4 S228P, lambda, V domains shown)
VH: B1 VH with Q34M, S57N, M100K
VL: B1 VL with G43D, S54N, S96N
notes: IgG4 S228P, lambda; parental light chain; also called 4A8 VH M96K
Human CXCR2 [2]
  IC50, CXCL1, Tango assay: 0.135 nM
  IC50, CXCL8, Tango assay: 0.091 nM
Human CXCR2 [3]
  Fold change in binding relative to BKO-4A8: 1 fold

B16: BKO-4A8 combinatorial variant 5c (antibody, human IgG4 S228P, lambda, V domains shown)
VH: B1 VH with A40P, R76K, M100K
VL: B1 VL
notes: IgG4 S228P, lambda
Human CXCR2 [1]
  EC50: 0.4 nM
  Fold Improvement over 4A8 WT: 1.25 fold

B17: BKO-4A8 combinatorial variant 7c (antibody, human IgG4 S228P, lambda, V domains shown)
VH: B1 VH with A40P, I98K, M100K
VL: B1 VL
notes: IgG4 S228P, lambda
Human CXCR2 [1]
  EC50: 1 nM
  Fold Improvement over 4A8 WT: 0.5 fold

B18: BKO-4A8 variant VH N56S (antibody, human IgG4 S228P, lambda, V domains shown)
VH: B1 VH with Q34M
VL: B1 VL with G43D, S54N, S96N
notes: IgG4 S228P, lambda; parental light chain; also called 4A8 VH N56S
Human CXCR2 [2]
  IC50, CXCL1, Tango assay: 0.158 nM
  IC50, CXCL8, Tango assay: 0.129 nM
Human CXCR2 [3]
  Fold change in binding relative to BKO-4A8: 1 fold

B19: BKO-4A8 combinatorial variant 6b (antibody, human IgG4 S228P, lambda, V domains shown)
VH: B1 VH with A40P, R76K, I98K, M100K
VL: B1 VL with G43D
notes: IgG4 S228P, lambda
Human CXCR2 [1]
  EC50: 0.4 nM
  Fold Improvement over 4A8 WT: 1 fold

B20: BKO-4A8 combinatorial variant 3b (antibody, human IgG4 S228P, lambda, V domains shown)
VH: B1 VH with A40P, R76K
VL: B1 VL with G43D
notes: IgG4 S228P, lambda
Human CXCR2 [1]
  EC50: 0.1 nM
  Fold Improvement over 4A8 WT: 4 fold

B21: BKO-4A8 variant VH I94K (antibody, human IgG4 S228P, lambda, V domains shown)
VH: B1 VH with Q34M, S57N, I98K
VL: B1 VL with G43D, S54N, S96N
notes: IgG4 S228P, lambda; parental light chain; also called 4A8 VH I94K
Human CXCR2 [2]
  IC50, CXCL1, Tango assay: 0.078 nM
  IC50, CXCL8, Tango assay: 0.071 nM
Human CXCR2 [3]
  Fold change in binding relative to BKO-4A8: 0.7 fold

B22: BKO-4A8 variant VH M96A (antibody, human IgG4 S228P, lambda, V domains shown)
VH: B1 VH with Q34M, S57N, M100A
VL: B1 VL with G43D, S54N, S96N
notes: IgG4 S228P, lambda; parental light chain; also called 4A8 VH M96A
Human CXCR2 [2]
  IC50, CXCL1, Tango assay: 0.14 nM
  IC50, CXCL8, Tango assay: 0.126 nM
Human CXCR2 [3]
  Fold change in binding relative to BKO-4A8: 1.5 fold

B23: BKO-4A8 variant VH M34H (antibody, human IgG4 S228P, lambda, V domains shown)
VH: B1 VH with Q34H, S57N
VL: B1 VL with G43D, S54N, S96N
notes: IgG4 S228P, lambda; parental light chain; also called 4A8 VH M34H
Human CXCR2 [2]
  IC50, CXCL1, Tango assay: 0.186 nM
  IC50, CXCL8, Tango assay: 0.107 nM
Human CXCR2 [3]
  Fold change in binding relative to BKO-4A8: 0.8 fold

B24: BKO-4A8 combinatorial variant 10c (antibody, human IgG4 S228P, lambda, V domains shown)
VH: B1 VH with Q34M, S57N, I98K, M100K
VL: B1 VL
notes: IgG4 S228P, lambda
Human CXCR2 [1]
  EC50: 0.5 nM
  Fold Improvement over 4A8 WT: 1 fold

B25: BKO-4A8 combinatorial variant 4c (antibody, human IgG4 S228P, lambda, V domains shown)
VH: B1 VH with A40P, M100K
VL: B1 VL
notes: IgG4 S228P, lambda
Human CXCR2 [1]
  EC50: 0.4 nM
  Fold Improvement over 4A8 WT: 1.25 fold

B26: BKO-4A8 combinatorial variant 9b (antibody, human IgG4 S228P, lambda, V domains shown)
VH: B1 VH with R76K, M100K
VL: B1 VL with G43D
notes: IgG4 S228P, lambda
Human CXCR2 [1]
  EC50: 0.3 nM
  Fold Improvement over 4A8 WT: 3 fold

B27: BKO-4A8 variant VL N94K (antibody, human IgG4 S228P, lambda, V domains shown)
VH: B1 VH with Q34M, S57N
VL: B1 VL with G43D, S54N, S96K
notes: IgG4 S228P, lambda; parental heavy chain; also called 4A8 VL N94K
Human CXCR2 [2]
  IC50, CXCL1, Tango assay: 0.123 nM
  IC50, CXCL8, Tango assay: 0.113 nM
Human CXCR2 [3]
  Fold change in binding relative to BKO-4A8: 1.33 fold
